This assay deals with T1, Saccharomyces cerevisiae eIF4E (S. cerevisiae, UniProt P07260 1-213, ^15N labeled).
T1 construct: eIF4E of Saccharomyces cerevisiae; source: E. coli BL21-star, purified (nickel resin, TEV cleavage, m^7G cap resin)
T1 sequence (looked up): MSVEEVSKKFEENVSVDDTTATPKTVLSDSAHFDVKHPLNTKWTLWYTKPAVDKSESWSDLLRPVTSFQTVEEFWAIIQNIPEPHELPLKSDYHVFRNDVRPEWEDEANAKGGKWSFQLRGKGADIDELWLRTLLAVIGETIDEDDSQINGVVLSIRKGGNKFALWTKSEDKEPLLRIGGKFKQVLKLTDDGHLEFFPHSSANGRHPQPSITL
Put plainly: NMR titration; ^15N HSQC of 200 μM ^15N S. cerevisiae eIF4E with 250 μM m^7GTP; peptide added to 1 mM; 50 mM phosphate pH 6.5, 50 mM KCl, 298 K, 900 MHz. Particulars: both partners purified.

B1: 4E-BP1 peptide (amino acids 51–67) (peptide)
peptide: RIIYDRKFLMECRNSPV
notes: human 4E-BP1, amino acids 51–67; also called human 4E-BP1 amino acids 51–67; source: synthetic peptide (Elim Bio)
For the molecule B1, the binding result is “binds”.

Values taken from article PMC11251518, “A novel reporter for helicase activity in translation uncovers DDX3X interactions” (RNA, 2024).
